This experiment has as its target Spef1 K204Q/K206Q/R207Q/R215Q/R218Q mutant (full-length) (mouse) (UniProt Q99JL1). Nature of the experiment: SEC-MALS.

For “Spef1 K204Q/K206Q/R207Q/R215Q/R218Q mutant (full-length) (from UniProt Q99JL1 1-234) (natural protein)”, the stoichiometry N (usually the number of molecules, sites or subunits per partner or assembly) amounted to 2.
